Patent EP4556028A1

Molecular target: spike protein of SARS-CoV-2 clinical isolate HH01 (Wuhan-like), on live virus (SARS-CoV-2 (Wuhan-like HH01)) (UniProt P0DTC2)
Assay: cell-based or functional assay

virus-binding conjugate S: PLGA-only particle incubated with LCB1 (control, adsorbed minibinder)
IC50, inhibition of SARS-CoV-2 HH01 replication on Calu-3 cells: 1 to 10 µg/mL

recombinant minibinder LCB1 with N- and C-terminal Ser/Gly extensions and C-terminal Cys (designed binder)
IC50, inhibition of SARS-CoV-2 HH01 replication on Calu-3 cells: 10 to 100 nM

virus-binding conjugate P: PLGA-PEG-Mal / PLGA (1:1) particle loaded with LCB1
IC50, inhibition of SARS-CoV-2 HH01 replication on Calu-3 cells: 4.86 µg/mL | IC90, inhibition of SARS-CoV-2 HH01 replication on Calu-3 cells: 4.99 µg/mL
